A value given as a limit tells only on which side of the number the result lay.

This experiment has as its target CD6分子 (CD6 on the cell surface) (human) (UniProt P30203). Put plainly: cell-based or functional assay.

For 人源化抗CD6单克隆抗体T1h (Itolizumab) (antibody), the HUT-78生长抑制率 (CCK-8, 72 h, 100 ng/mL Hum-zap) at T1h 0.8 μM was found to be 11.4%; the 细胞生长抑制率 of HUT-78 (CCK-8, 72 h, 100 ng/mL Hum-zap) at T1h 8×10-2, 8×10-3 and 8×10-4 μM was > 65%; the 细胞生长抑制率 of HUT-78 (CCK-8, 72 h, 100 ng/mL Hum-zap) at T1h 8×10-5, 8×10-6, 8×10-7 and 8×10-8 μM is < 10%.

For the origin of these results see CN102559636A.
